Earlier results as cited in paper PMC4501269 (Biochemistry, 2011).
Where two headings read alike, the source gives them in different places.

Assays:
[1] = system: PPARγ
[2] = target: SRC-1 (Homo sapiens) (UniProt Q15788)
[3] = target: SRC-1 (Homo sapiens) (UniProt Q15788); remark: listed apart in the source
[4] = target: SRC-1 (Homo sapiens) (UniProt Q15788); experiment: fluorescence polarization
[5] = target: SRC-2 (Homo sapiens) (UniProt Q15596); experiment: fluorescence cross-correlation spectroscopy
[6] = target: SRC-2 (Homo sapiens) (UniProt Q15596); experiment: fluorescence cross-correlation spectroscopy; remark: listed apart in the source
[7] = target: SRC-2 (Homo sapiens) (UniProt Q15596); experiment: fluorescence cross-correlation spectroscopy; remark: listed apart in the source

Chain of SRC-2 (Homo sapiens) (Q15596 2-1464): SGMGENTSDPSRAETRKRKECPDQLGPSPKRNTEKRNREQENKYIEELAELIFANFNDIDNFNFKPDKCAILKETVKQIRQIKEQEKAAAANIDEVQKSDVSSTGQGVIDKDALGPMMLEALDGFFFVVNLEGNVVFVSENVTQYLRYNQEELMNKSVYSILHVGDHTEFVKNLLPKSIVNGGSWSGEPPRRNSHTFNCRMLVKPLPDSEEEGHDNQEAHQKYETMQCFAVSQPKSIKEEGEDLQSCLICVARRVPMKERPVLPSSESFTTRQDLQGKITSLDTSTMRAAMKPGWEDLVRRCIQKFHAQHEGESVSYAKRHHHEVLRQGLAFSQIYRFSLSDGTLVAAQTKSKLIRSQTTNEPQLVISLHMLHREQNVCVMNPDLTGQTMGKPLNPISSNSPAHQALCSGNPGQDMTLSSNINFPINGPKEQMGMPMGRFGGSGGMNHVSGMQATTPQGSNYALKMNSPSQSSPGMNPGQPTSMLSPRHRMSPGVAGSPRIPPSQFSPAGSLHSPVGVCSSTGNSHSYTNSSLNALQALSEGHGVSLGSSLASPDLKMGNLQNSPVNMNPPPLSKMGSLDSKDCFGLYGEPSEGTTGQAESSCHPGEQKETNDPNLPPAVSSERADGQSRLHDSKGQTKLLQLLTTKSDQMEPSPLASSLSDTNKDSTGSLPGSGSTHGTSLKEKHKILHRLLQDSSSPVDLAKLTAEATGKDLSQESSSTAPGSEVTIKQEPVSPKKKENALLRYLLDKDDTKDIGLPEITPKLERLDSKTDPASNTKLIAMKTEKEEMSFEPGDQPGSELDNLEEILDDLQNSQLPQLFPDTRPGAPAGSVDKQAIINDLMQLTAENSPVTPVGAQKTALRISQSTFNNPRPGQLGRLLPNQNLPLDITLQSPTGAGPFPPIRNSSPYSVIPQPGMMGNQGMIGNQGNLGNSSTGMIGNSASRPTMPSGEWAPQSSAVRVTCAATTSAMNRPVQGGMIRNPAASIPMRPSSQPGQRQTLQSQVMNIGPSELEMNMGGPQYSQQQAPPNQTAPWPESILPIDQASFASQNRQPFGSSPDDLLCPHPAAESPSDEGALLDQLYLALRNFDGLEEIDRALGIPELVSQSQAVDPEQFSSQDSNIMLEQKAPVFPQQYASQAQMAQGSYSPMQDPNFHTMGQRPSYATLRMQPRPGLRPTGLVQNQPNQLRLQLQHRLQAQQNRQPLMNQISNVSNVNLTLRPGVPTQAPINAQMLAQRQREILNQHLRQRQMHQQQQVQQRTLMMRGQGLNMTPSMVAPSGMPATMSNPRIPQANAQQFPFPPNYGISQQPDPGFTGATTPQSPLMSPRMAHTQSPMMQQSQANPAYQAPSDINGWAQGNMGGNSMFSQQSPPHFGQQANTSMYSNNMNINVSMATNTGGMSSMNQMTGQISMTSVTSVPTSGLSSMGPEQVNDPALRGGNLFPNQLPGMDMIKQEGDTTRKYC
Chain of SRC-1 (Homo sapiens) (Q15788 2-1441): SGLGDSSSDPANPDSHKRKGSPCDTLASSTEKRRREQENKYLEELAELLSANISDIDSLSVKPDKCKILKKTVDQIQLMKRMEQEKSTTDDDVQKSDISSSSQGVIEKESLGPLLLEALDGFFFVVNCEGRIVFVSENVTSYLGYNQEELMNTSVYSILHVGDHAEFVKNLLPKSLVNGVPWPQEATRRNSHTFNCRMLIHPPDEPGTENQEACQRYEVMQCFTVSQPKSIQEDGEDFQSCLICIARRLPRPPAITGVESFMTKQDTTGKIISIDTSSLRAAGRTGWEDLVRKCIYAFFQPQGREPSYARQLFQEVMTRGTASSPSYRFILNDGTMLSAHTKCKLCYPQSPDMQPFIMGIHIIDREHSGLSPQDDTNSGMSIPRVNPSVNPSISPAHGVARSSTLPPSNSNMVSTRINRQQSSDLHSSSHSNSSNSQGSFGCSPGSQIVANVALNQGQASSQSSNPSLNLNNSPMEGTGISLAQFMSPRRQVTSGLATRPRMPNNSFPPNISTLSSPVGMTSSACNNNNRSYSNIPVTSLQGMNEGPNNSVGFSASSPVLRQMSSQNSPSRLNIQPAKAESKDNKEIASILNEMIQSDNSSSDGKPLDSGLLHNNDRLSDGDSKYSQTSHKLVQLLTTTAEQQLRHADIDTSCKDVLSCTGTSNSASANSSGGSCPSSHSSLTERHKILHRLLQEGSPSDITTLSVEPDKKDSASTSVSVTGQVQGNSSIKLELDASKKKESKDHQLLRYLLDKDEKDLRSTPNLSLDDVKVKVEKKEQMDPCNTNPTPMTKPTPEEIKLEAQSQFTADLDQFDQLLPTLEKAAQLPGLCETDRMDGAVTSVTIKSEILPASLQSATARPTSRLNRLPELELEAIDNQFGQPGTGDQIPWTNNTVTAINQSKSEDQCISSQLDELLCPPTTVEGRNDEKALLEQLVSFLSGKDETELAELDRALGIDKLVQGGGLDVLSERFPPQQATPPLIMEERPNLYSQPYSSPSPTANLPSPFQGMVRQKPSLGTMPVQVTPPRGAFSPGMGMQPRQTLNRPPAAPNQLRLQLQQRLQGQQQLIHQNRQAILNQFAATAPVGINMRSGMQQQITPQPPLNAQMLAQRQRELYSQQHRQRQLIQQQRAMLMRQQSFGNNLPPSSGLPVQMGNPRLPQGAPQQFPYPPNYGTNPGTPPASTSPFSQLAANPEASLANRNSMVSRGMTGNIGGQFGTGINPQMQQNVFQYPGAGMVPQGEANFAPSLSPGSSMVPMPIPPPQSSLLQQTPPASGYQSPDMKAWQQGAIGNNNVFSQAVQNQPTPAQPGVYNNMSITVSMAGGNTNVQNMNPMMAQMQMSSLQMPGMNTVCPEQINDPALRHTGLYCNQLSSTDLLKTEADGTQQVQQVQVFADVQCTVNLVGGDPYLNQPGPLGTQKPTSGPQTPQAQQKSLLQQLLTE
Chain of estrogen receptor (P03372 whole entry): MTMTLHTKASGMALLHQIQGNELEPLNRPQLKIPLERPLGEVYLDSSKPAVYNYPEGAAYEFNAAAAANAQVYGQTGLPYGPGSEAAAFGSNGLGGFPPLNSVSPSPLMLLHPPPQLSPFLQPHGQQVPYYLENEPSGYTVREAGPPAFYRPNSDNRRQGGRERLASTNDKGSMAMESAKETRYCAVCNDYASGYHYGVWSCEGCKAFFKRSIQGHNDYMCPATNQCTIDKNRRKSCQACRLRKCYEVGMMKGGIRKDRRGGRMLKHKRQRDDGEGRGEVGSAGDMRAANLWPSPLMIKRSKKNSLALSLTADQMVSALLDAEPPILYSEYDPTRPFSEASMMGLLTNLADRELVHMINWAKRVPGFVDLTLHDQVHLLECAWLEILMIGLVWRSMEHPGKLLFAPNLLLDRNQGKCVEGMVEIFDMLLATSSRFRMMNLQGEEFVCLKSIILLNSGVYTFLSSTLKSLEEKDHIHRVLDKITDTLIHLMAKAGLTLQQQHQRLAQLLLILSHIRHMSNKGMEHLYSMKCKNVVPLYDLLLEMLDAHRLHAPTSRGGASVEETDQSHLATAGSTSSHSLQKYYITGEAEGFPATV
Chain of PPARγ (from UniProt P37231) (P37231 whole entry): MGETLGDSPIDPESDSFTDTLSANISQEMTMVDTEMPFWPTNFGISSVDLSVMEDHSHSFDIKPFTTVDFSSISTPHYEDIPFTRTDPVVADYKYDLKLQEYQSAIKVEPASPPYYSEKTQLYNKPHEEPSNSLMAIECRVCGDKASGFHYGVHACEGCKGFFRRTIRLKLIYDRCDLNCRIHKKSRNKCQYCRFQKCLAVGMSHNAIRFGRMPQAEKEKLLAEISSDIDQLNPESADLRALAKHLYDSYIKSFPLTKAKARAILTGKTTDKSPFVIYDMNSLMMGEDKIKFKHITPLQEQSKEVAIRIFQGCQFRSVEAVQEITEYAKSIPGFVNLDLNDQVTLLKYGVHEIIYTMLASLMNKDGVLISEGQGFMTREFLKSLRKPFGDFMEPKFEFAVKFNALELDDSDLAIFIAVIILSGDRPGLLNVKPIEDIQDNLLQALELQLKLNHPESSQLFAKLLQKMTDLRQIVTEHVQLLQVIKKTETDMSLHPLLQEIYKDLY
Chain of estrogen receptor LBD (P03372 311-547): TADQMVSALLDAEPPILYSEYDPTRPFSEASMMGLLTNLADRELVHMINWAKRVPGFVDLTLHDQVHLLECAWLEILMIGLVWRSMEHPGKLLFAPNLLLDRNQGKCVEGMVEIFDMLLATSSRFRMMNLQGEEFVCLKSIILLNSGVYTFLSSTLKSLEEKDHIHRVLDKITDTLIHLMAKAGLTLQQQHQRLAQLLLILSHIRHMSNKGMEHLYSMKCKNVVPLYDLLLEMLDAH

Question: For `COc1ccc2c(c1)c(CC(=O)O)c(C)n2C(=O)c1ccc(Cl)cc1` [IDM, indomethacin], which “increase in the affinity of PPARγ for SRC-1” value [1] is on record?
Answer: Its value is 30 fold.

Question: For PPARγ (from UniProt P37231), which Kd [2] is on record?
Answer: Its Kd is 960 nM.

Question: And the Kd [3]?
Answer: The Kd was 34.2 µM.

Question: With estrogen receptor (from UniProt P03372) as the molecule, how does the Kd [4] read?
Answer: Its Kd is 30 nM.

Question: What about the Kd [5] of the same molecule?
Answer: Its Kd is less than 6 nM.

Question: What about the Kd [6] of the same molecule?
Answer: Its Kd is greater than 3000 nM.

Question: And the Kd [7]?
Answer: Its Kd is 200 nM.

Question: Which Kd [4] does the source give for “estrogen receptor LBD (from UniProt P03372)” here?
Answer: The Kd was 30 nM.
